From patent US20230374471A1, “SELF-ASSEMBLING URICASE FUSION PEPTIDES” (University of Florida Research Foundation, Incorporated, priority 2020, published 2023)

B1: Ac-QQKPKPKPKQQ-Am [mCATCH(+)] (peptide)
peptide: Ac-QQKPKPKPKQQ-NH2
notes: Mutant of CATCH(+) with proline in place of the phenylalanine residues

Tests used:
[1] = literature value (ref. 7); cited from earlier work
[2] = Circular dichroism: concentration-dependent transition from random coil to β-sheet; type: physicochemical; details: equimolar mixture of CATCH peptides in 1x PBS, ellipticity at 212 nm
Description: Circular Dichroism. Circular Dichroism was performed on an AVIV 202 spectrometer. Peptides were prepared in 1x PBS at 500 μM, unless stated otherwise. Samples were run 3 times, averaged, and converted to mean residue ellipticity. All data reported was for dynode values <500 V.
(§1) Nanofiber preparation. Stock solutions of CATCH(−) and CATCH(+) were prepared by dissolving lyophilized peptides in 1x PBS to a final concentration of 500 μM. Peptide concentration was confirmed using Phe absorbance (λ=260 nm). CATCH peptides were then mixed at a 1:1 (v/v) ratio and incubated overnight for formation of nanofibers, unless stated otherwise.

[3] = Protein incorporation and retention in macroscopic hydrogels under excess PBS; type: physicochemical
Description: Macroscopic Hydrogel Formation. A 12 mM stock solution of CATCH(−) was prepared by dissolving dry peptide in 1x PBS and adjusting the pH to ˜7.6 with ammonium bicarbonate (Fisher). A 12 mM stock solution of CATCH(+) was prepared by dissolving dry peptide in 1X PBS and adjusting the pH to ˜7.2 with hydrochloric acid (0.5 N Fisher). CATCH peptide stock solutions were combined at a 1:1 (v/v) ratio in a 0.2 mL glass vial (Thermo), and the vial was gently swirled for 2 min until the hydrogel formed. The hydrogel was stained with red food coloring to aid visualization. Hydrogel images were recorded using a digital still camera.
Protein Incorporation into Macroscopic Hydrogels. […] Immediately after hydrogel formation, fluorescence was visualized by placing the glass vials on a SafeImager 2.0 transilluminator (Invitrogen) and recording images with a digital still camera. […] At various time points, fluorescence in the buffer supernatant was visualized by placing the glass vials on a SafeImager 2.0 transilluminator (Invitrogen) and recording images with a digital still camera. At the end-point, buffer supernatant was carefully removed by decanting and fluorescence was visualized by placing the glass vials on a SafeImager 2.0 transilluminator (Invitrogen) and recording images with a digital still camera.

[4] = molecular target: T1, Ac-EQEPEPEPEQE-Am [mCATCH(-)]; test: ThT fluorimetry, kinetic, equimolar mixture
T1 construct: Mutant of CATCH(-) with proline in place of the phenylalanine residues
T1 peptide: Ac-EQEPEPEPEQE-NH2

[5] = molecular target: B1; test: ThT fluorimetry, equimolar mixture
Description: (§2) Thioflavin T (ThT) Assay. A ThT stock solution containing 0.8 mg/mL of thioflavin T (Acros) in 1x phosphate-buffered saline (PBS) (137 mM NaCl, 2.7 mM KCl, 10 mM Na₂HPO₄ and 1.8 mM KH₂PO₄, pH 7.4) was filtered through a 0.22 μm syringe filter (Millex), and further diluted 1:10 with 1x PBS to create a working solution. Peptide samples were mixed with the ThT working solution at a 1:10 (v/v) ratio, added to a black 96-well plate (Corning), and analyzed with a Molecular Devices SpectraMax M3 spectrophotometer (excitation 450, emission 482 nm). All samples were run in triplicate, with the mean and standard deviation of these samples reported.
as §1

[6] = molecular target: the molecule itself; test: ThT fluorimetry, TEM, CD and fluorescence microscopy of the peptide alone
[7] = Dissolution of monosodium urate (MSU) crystals in vitro; type: biochemical; details: 12.6 ug soluble CATCH-U, 0.5 mg MSU crystals, 2250 U/mL catalase, 96 hours, density at 293 nm
Description: The enzymatic activity of CATCH-U in soluble and gel form was evaluated by measuring uric acid depletion over time via absorbance at 293 nm and 37° C. for varying concentrations of uric acid substrate. Hydrogels were left to incubate at 37° C. for 4 days with substrate removed and replenished daily to determine if the gels remain active over this timeframe. Gels were also incubated with monosodium urate (MSU) crystals.
Soluble CATCH-U activity in dissolving MSU crystals was assessed by incubating 12.6 ug soluble CATCH-U with 0.5 mg MSU crystals and 2250 U/mL catalase for 96 hours (FIG. 60). MSU crystal density was determined at 293 nm compared to a standard curve of crystals. […] Brightfield images, scale bar=[…].
The hydrogel creates a concentration gradient sufficient to dissolve crystallized uric acid in the form of monosodium urate (MSU) crystals (FIGS. 58 and 61). […] MSU crystals appear as white flakes while the background is black. The gel is the white mass on the right. […] A similar experiment was performed with lOuL hydrogels comprising 3.17 ug CATCH-U and incubated with 1 g/L MSU crystals for 24 hours (FIG. 61). […] Polarized, phase contrast images, scale bar=500 μm.

[8] = molecular target: T1, Ac-EQEPEPEPEQE-Am [mCATCH(-)]; test: ThT fluorimetry, equimolar mixture
Description: as §2, §1

In the case of “Ac-QQKFQFQFEQQ-Am (Ac-QQKFQFQFEQQ-NH2) [Q11]”, the “Concentration at which the peptide self-assembles into β-sheet nanofibers” value [1] is listed as about 10 µM.

For “CATCH peptides: equimolar mixture of CATCH(+) and CATCH(−) peptides that co-assemble into β-sheet nanofibers (Ac-QQKFKFKFKQQ-NH2; not fully specified)”, the β-sheet fibrillization concentration [2] was “about 300 μM”.

For “CATCH(−)GFP: recombinant fusion of CATCH(−) and superfolder green fluorescent protein (GFP)”, the “Fluorescence of hydrogel after incubation under excess 1x PBS” value ([3]; CATCH hydrogels formed in presence of the fusion protein, 48 h) was “retained their fluorescence” and the “GFP in the buffer layer over the hydrogels” value ([3]; excess 1x PBS, up to 48 h) was “no GFP was detected”.

B1: no binding [4].

B2: Ac-EQEFEFEFEQE-Am [CATCH(-)] (peptide)
peptide: Ac-EQEFEFEFEQE-NH2
notes: Synthetic designed anionic variant of Q11, made by Fmoc solid-phase synthesis; also called CATCH (6-); negative peptide
B2: no binding [5]; no binding [6].

B3: CATCH-U: uricase fused to a CATCH peptide, expressed in E. coli, purified via nickel affinity chromatography; probably SEQ ID NO: 9 (FIG. 59) (protein)
chain: MAEQEFEFEFEQEGSGGGSGGSGGGGSGGSGEFMSAVKAARYGKDNVRVYKVHKDEKTGVQTVYEMTVCVLLEGEIETSYTKADNSVIVATDSIKNTIYITAKQNPVTPPELFGSILGTHFIEKYNHIHAAHVNIVCHRWTRMDIDGKPHPHSFIRDSEEKRNVQVDVVEGKGIDIKSSLSGLTVLKSTNSQFWGFLRDEYTTLKETWDRILSTDVDATWQWKNFSGLQEVRSHVPKFDATWATAREVTLKTFAEDNSASVQATMYKMAEQILARQQLIETVEYSLPNKHYFEIDLSWHKGLQNTGKNAEVFAPQSDPNGLIKCTVGRSSLKSKLLEHHHHHH
For B3, the “MSU crystal amount over time” value [7] was “steady and significant decrease”.

B4: Ac-QQKFKFKFKQQ-Am [CATCH(+)] (peptide)
peptide: Ac-QQKFKFKFKQQ-NH2
notes: Synthetic designed cationic variant of Q11, made by Fmoc solid-phase synthesis; also called CATCH (4+); positive peptide
B4: no binding [8]; no binding [6].
